This assay addresses human serum albumin (human) (UniProt P02768). In words: screening ELISA.

Sequence of human serum albumin (human) (P02768 25-609 limits assumed): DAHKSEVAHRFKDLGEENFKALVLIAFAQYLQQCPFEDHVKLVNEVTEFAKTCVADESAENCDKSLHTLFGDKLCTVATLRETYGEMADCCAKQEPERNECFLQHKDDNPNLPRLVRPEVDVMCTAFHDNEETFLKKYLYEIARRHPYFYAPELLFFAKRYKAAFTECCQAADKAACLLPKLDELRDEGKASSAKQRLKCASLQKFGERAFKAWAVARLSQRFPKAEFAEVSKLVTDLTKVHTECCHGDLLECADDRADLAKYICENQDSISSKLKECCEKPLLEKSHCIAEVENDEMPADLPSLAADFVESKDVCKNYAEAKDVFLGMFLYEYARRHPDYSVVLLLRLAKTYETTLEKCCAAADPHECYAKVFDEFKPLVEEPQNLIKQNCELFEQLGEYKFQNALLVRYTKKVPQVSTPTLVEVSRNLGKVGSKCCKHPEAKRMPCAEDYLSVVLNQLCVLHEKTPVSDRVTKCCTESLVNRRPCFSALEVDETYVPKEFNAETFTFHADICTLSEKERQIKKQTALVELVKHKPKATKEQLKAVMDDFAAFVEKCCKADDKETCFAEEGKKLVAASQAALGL

B1: SEQ ID NO 49 (designed binder)
chain: MLPAPKNLVVSRVTEDSARLSWTAPDAAFDSFGISYLEWWEDGEAIVLTVPGSERSYDLTGLKPGTEYWVSIAGVKGGKRSYPLSAIFTT
B1 had an HSA of 11500.

B2: SEQ ID NO 51 (designed binder)
chain: MLPAPKNLVVSRVTEDSARLSWTAPDAAFDSFFIKYIEWWADGEAIVLTVPGSERSYDLTGLKPGTEYLVEIYGVKGGKWSWPLSAIFTT
In the case of B2, the HSA turned out to be 4240.

B3: SEQ ID NO 227 (designed binder)
chain: MLPAPKNLVVSRVTEDSARLSWTAPDAAFDSFRIRYLEWWNIGEAIVLTVPGSERSYDLTGLKPGTEYHVDIWGVKGGYSSYPLSAIFTT
Turning to B3, the HSA was 2300.

B4: SEQ ID NO 240 (designed binder)
chain: MLPAPKNLVVSRVTEDSARLSWTAPDAAFDSFRIKYLEWWLGGEAIVLTVPGSERSYDLTGLKPGTEYWVDIQGVKGGVLSWPLSAIFTT
Molecule B4 returned an HSA of 2050.

B5: SEQ ID NO 242 (designed binder)
chain: MLPAPKNLVVSRVTEDSARLSWTAPDAAFDSFPIKYLEWWSWGEAIVLTVPGSERSYDLTGLKPGTEYRVPISGVKGGGMSGPLSAIFTT
As for B5, the HSA stood at 4900.

B6: SEQ ID NO 229 (designed binder)
chain: MLPAPKNLVVSRVTEDSARLSWTAPDAAFDSFSIHYDEDWRRGEAIVLTVPGSERSYDLTGLKPGTEYLVEIPGVKGGKASYPLSAIFTT
B6 registered an HSA of 3700.

B7: SEQ ID NO 237 (designed binder)
chain: MLPAPKNLVVSRVTEDSARLSWTAPDAAFDSFTILYGEMGTTGEAIVLTVPGSERSYDLTGLKPGTEYDVFIEGVKGGELSWPLSAIFTT
B7 had an HSA of 1850.

B8: SEQ ID NO 246 (designed binder)
chain: MLPAPKNLVVSRVTEDSARLSWTAPDAAFDSFTIAYNEQNHYGEAIVLTVPGSERSYDLTGLKPGTEYGVWIEGVKGGTLSWPLSAIFTT
With B8, the HSA turned out to be 1400.

B9: SEQ ID NO 250 (designed binder)
chain: MLPAPKNLVVSRVTEDSARLSWTAPDAAFDSFFIGYLEPYPPGEAIVLTVPGSERSYDLTGLKPGTEYAVEIAGVKGGLLSSPLSAISTT
B9: the HSA is 18800.

B10: SEQ ID NO 251 (designed binder)
chain: MLPAPKNLVVSRVTEDSARLSWTAPDAAFDSFFIGYLEPQPPGEAIVLTVPGSERSYDLTGLKPGTEYNVTIQGVKGGFPSMPLSAIVTT
For B10, the HSA was 9650.

B11: SEQ ID NO 245 (designed binder)
chain: MLPAPKNLVVSRITEDSARLSWTAPDAAFDSFGIAYNEGDHYGEAIVLTVPGSERSYDLTGLKPGTEYSVWIEGVKGGNLSYPLSAIFTT
Take B11: the HSA is 2900.

B12: SEQ ID NO 247 (designed binder)
chain: MLPAPKNLVVSRVTEDSARLSWTAPDAAFDSFYIEWTYKGEAIVLTVPGSERSYDLTGLKPGTEYFVGIPGVKGGKSSYPLSAIFTT
Take B12: the HSA was determined as 53000.

B13: SEQ ID NO 239 (designed binder)
chain: MLPAPKNLVVSRVTEDSARLSWTAPDAAFDSFAITYYEGRWRGEAIVLTVPGSERSYDLTGLKPGTEYGVPIRGVKGGTGSLPLSAIFTT
B13 came in with an HSA of 5050.

B14: SEQ ID NO 225 (designed binder)
chain: MLPAPKNLVVSRVTEDSARLSWTAPDAAFDSFKIEYFEYVGYGEAIVLTVPGSERSYDLTGLKPGTEYYVAIYGVKGGWYSRPLSAIFTT
For the molecule B14, the HSA was determined as 14100.

B15: SEQ ID NO 255 (designed binder)
chain: MLPAPKNLVVSRVTEDSARLSWTAPDAAFDSFDIEYYELIGRGEAIVLTVPGSERSYDLTGLKPGTEYWVGIYGVKGGWLSRPLSAIFTT
The molecule B15 registered an HSA of 4550.

B16: SEQ ID NO 253 (designed binder)
chain: MLPAPKNLVVSRVTEDSARLSWTAPDAAFDSFTIEYWETIGGGEAIVLTVPGSERSYDLTGLKPGTEYYVGIYGVKGGWWSRPLSAIFTT
Regarding B16, the HSA is 2450.

B17: SEQ ID NO 231 (designed binder)
chain: MLPAPKNLVVSRVTEDSARLSWTAPDAAFDSFEIPYIETVALGEAIVLTVPGSERSYDLTGLKPGTEYYVEIYGVKGGSYSYPLSAISTT
B17: the HSA is 26500.

B18: SEQ ID NO 252 (designed binder)
chain: MLPAPKNLVVSRVTEDSARLSWTAPDAAFDSFDIGYTEYGGYGEAIVLTVPGSERSYDLTGLKPGTEYWVLIQGVKGGGSSVPLSAIFTT
B18 showed an HSA of 2500.

B19: SEQ ID NO 238 (designed binder)
chain: MLPAPKNLVVSRVTEDSARLSWTAPDAAFDSFKIFYQEFGGEAIVLTVPGSERSYDLTGLKPGTEYWVDIYGVKGGYTSSPLSAIFTT
On to B19, for which the HSA was 4250.

B20: SEQ ID NO 226 (designed binder)
chain: MLPAPKNLVVSRVTEDSARLSWTAPDAAFDSFHIIYEEVLTEGEAIYLRVPGSERSYDLTGLKPGTEYGVTIKGVKGGAYSIPLIATFTT
The molecule B20 gave an HSA of 2850.

B21: SEQ ID NO 241 (designed binder)
chain: MLPAPKNLVVSRVTEDSARLSWTAPDAAFDSFNIYYYEWFVSGEAIVLTVPGSERSYDLTGLKPGTEYFVDIDGVKGGYRSRPLSAIFTT
Consider B21, for which the HSA worked out at 2200.

B22: SEQ ID NO 248 (designed binder)
chain: MGSLPAPKNLVVSRVTEDSARLSWTAPDAAFDSFAIPYAEPSPTGEAIVLTVPGSERSYDLTGLKPGTEYPVWIQGVKGGSPSAPLSAEFTT
B22: the HSA came out at 15100.

B23: SEQ ID NO 224 (designed binder)
chain: MLLAPKNLVVSRVTEDSARLSWTAPDAAFDSFRYLEQGLYGEAIVLTVPGSERSYDLTGLKPGTEYWVEIIGVKGGEYSTPLSAIFTT
As to B23, the HSA is 16500.

B24: SEQ ID NO 230 (designed binder)
chain: MLPAPKNLVVSRVTEDSARLSWTAPDAAFDSFQIRYPKRWISGEAIVLTVPGSERSYDLTGLKPGTEYEVVIRGVKGGEYSWPLSAIFTT
Take B24: the HSA came out at 1900.

B25: SEQ ID NO 244 (designed binder)
chain: MLPAPKNLVVSRVTEDSARLSWTAPDAAFDSFHIDYSEFHLRGEAIVLTVPGSERSYDLTGLKPGTEYLGIFGVKGGEQSGPLSAIFTT
Molecule B25 had an HSA of 1650.

B26: SEQ ID NO 235 (designed binder)
chain: MLPAPKNLVVSRVTEDSARLSWTAPDAAFDSFSINYREWWSDGEAIYLPVPGSERSYDLTGLKPGTEYAVYIQGVKGGSRSFPLHAWFTT
For B26, the HSA amounted to 1350.

B27: SEQ ID NO 233 (designed binder)
chain: MLPAPKNLVVSRVTEDSARLSWTAPDAAFDSFYIVYAEPIPNGEAIVLTVPGSERSYDLTGLKPGTEYSVLIHGVKGGRNSDPLSAIFTT
The molecule B27 yielded an HSA of 2600.

B28: SEQ ID NO 254 (designed binder)
chain: MLPAPKNLVVSRVTEDSARLSWTAPDAAFDSFFIPYAEPSPTGEAIVLTVPGSERSYDLTGLKPGTEYSVLIHGVKGGHLSDPLSAISTT
As to B28, the HSA is 90000.

(Values after patent publication US20210145976A1.)
